Measured values published in the Immune Epitope Database (IEDB).

biological target: HLA-A*02:01; test: IEDB peptide-MHC binding, purified MHC/competitive/radioactivity; ≥ and ≤ were set here for values at or beyond the usual limits of such assays; settings: source organism: Influenza A virus

| Sequence | IC50 [nM] |
| --- | --- |
| FVEALARSI | 1020 |

same assay, conditions: source organism: Mammarenavirus brazilense

| Sequence | IC50 [nM] |
| --- | --- |
| FTTTLFLHLV | 473 |
| GLFQLIFFL | 0.44 |
| GLFQLIFFLT | 1230 |
| GLLEWIFRAL | 439 |
| GQLFSFFEEV | 33 |

same assay, conditions: source organism: Mammarenavirus juninense

| Sequence | IC50 [nM] |
| --- | --- |
| GLFQFFVFL | 495 |
| GLFQFFVFLA | 26 |
| GLHTEFQTV | 129 |
| KMKCFGNTAV | 2930 |

same assay, conditions: source organism: Mammarenavirus lassaense

| Sequence | IC50 [nM] |
| --- | --- |
| FVFSTSFYL | 2.5 |
| FVFSTSFYLI | 329 |
| GTMPSLTLA | 1670 |

same assay, conditions: source organism: Mammarenavirus machupoense

| Sequence | IC50 [nM] |
| --- | --- |
| GLYMGNLSQL | 72 |

same assay, conditions: source organism: Mammarenavirus whitewaterense

| Sequence | IC50 [nM] |
| --- | --- |
| FTMEWFLSGL | 70 |
| FTPQIICGNV | 972 |
| GLLQFIVFLL | 242 |
| GLTDLGLLYT | 102 |
| GLVDVCFWST | 71 |

same assay, conditions: source organism: Vaccinia virus WR

| Sequence | IC50 [nM] |
| --- | --- |
| FTISMRYQSL | 4300 |
| FTLIDIWFL | 0.49 |
| FTLNHVLAL | 1.5 |
| FTLTGSPSST | 4460 |
| FTPRDNETV | 877 |
| FTSSFYNYV | 0.46 |
| FTTTSEVVDM | 1890 |
| FTYYPTNKL | 1730 |
| FVADRLISEL | 1880 |
| FVARVFLGL | 19 |
| FVCISYYFT | 994 |
| FVFAWFNGV | 0.38 |
| FVFILTAIL | 4.1 |
| FVFRSPFIV | 4.6 |
| FVFRSPFIVI | 170 |
| FVILYLLAV | 7.8 |
| FVIVIYIFT | 3470 |
| FVIVIYIFTV | 122 |
| FVLVDNVDFA | 75 |
| FVNDLMTMNI | 178 |
| FVNKHLPTM | 1590 |
| GAENIVFNL | 4720 |
| GIAHLLEHL | 3560 |

| Sequence | IC50 [nM] |
| --- | --- |
| GIFCFRILL | 7.8 |
| GIKSVVVPI | 869 |
| GILSNYVKTL | 312 |
| GIYHDDLVV | 2830 |
| GLADAFILL | 13 |
| GLCIRISMV | 216 |
| GLCIRISMVI | 2040 |
| GLDLENLYA | 117 |
| GLDLENLYAV | 3.5 |
| GLDVKNVQL | 278 |
| GLDVKNVQLV | 313 |
| GLFIYIPGT | 19 |
| GLHCDFACLM | 2800 |
| GLIACLIFV | 7.7 |
| GLIIISIFL | 72 |
| GLIKKPYRSI | 848 |
| GLISGSTFSI | 22 |
| GLIYSMEFT | 1220 |
| GLKKIIQRV | 1700 |
| GLLDRLYDL | 0.13 |
| GLNDYLHSV | 1.3 |
| GLSGDSERV | 626 |
| GLVRLNAFL | 1.7 |

| Sequence | IC50 [nM] |
| --- | --- |
| GLYCYFTHL | 5.4 |
| GLYYQGSCYI | 5.1 |
| GMANTTFHV | 0.41 |
| GMLFVNDLM | 467 |
| GMLFVNDLMT | 838 |
| GTGYYKYFI | 1650 |
| GTINRILVIT | 1230 |
| GTYAVNIHV | 33 |
| GVIEYAKSI | 4180 |
| GVLTIKAPNV | 3880 |
| GVSKKNIWL | 3160 |
| HIFMASPENV | 97 |
| HIFYQLANV | 5.8 |
| HIIIVALTIM | 1670 |
| HISIKVKNHI | 280 |
| HLEWLLGFI | 173 |
| HLGYIIRYPV | 12 |
| HLIFSYAFL | 105 |
| HLIKIPLLI | 1.9 |
| HLMFYTLPI | 0.67 |
| HLNPSRIRI | 956 |
| HLPTMYDGL | 1090 |
| HMNEIRINI | 670 |

| Sequence | IC50 [nM] |
| --- | --- |
| HMYFTFFDV | 9.1 |
| HQWDIDSAI | 1010 |
| IAISSLNKL | 1500 |
| IAMENLKAML | 674 |
| IIAIVFVFI | 241 |
| IIDFLEGAL | 919 |
| IIDKDTNSV | 62 |
| IIDKDTNSVT | 2800 |
| IIDREVVANV | 63 |
| IIFFIVLILL | 201 |
| IIFGESSIFV | 1.3 |
| IIILAVLFI | 1660 |
| IIIPFIAYFV | 1.2 |
| IIITCCLLSV | 6.3 |
| IILAISALL | 12 |
| IILLFDFSI | 162 |
| IILVIIVVI | 418 |
| IITNAGTCTV | 454 |
| IIVALTIMGV | 216 |
| ILAIIFLVL | 131 |
| ILASIIDYV | 0.61 |
| ILDDNLYKV | 1.3 |
| ILFNLSKFLL | 4 |

| Sequence | IC50 [nM] |
| --- | --- |
| ILGILYLYET | 73 |
| ILGMLFSDRV | 17 |
| ILLFVIVIYI | 7.8 |
| ILLLIGICVA | 683 |
| ILLTLRMTQL | 366 |
| ILMDNKGLGV | 1.3 |
| ILMDSIFVST | 45 |
| ILMIFISSFL | 22 |
| ILMYPTTLL | 7 |
| ILPCPQINTL | 1380 |
| ILPVIFLSI | 0.66 |
| ILQISQCQRI | 2600 |
| ILQYDLWNV | 0.17 |
| ILRKIFYSV | 126 |
| ILSAVAIFCI | 13 |
| ILSDDMLNI | 7.6 |
| ILSLFLISLV | 2.9 |
| ILSNYVKTL | 313 |
| ILSNYVKTLL | 7.5 |
